From patent publication CN114044821A (INST MILITARY MEDICINE ACADEMY MILITARY SCIENCES PLA, dated 2022) come the findings set out here.

One assay has as its target SARS-CoV-2 WT S-ECD蛋白 (SARS-CoV-2, UniProt P0DTC2 14-1213).
A further assay concerns the target Alpha株刺突蛋白(S蛋白)，在假病毒表面 (SARS-CoV-2 Alpha株 (B.1.1.7)). Nature of the assay: cell-based or functional assay.
Assay [1] concerns the target Beta株刺突蛋白(S蛋白)，在假病毒/真病毒表面 (SARS-CoV-2 Beta株 (B.1.351)). Put plainly: cell-based or functional assay.
In another assay the target is Gamma株刺突蛋白(S蛋白)，在假病毒表面 (SARS-CoV-2 Gamma株 (P.1)). Nature of the assay: cell-based or functional assay.
Assay [2] addresses Delta株刺突蛋白(S蛋白)，在假病毒/真病毒表面 (SARS-CoV-2 Delta株 (B.1.617.2)). Nature of the assay: cell-based or functional assay.
The target in a further assay is Omicron株刺突蛋白(S蛋白)，在假病毒表面 (SARS-CoV-2 Omicron株 (B.1.1.529)). Nature of the assay: cell-based or functional assay.

B1: 抗SARS-CoV-2全人源单克隆抗体ZWC12 (antibody, V domains shown)
VH: EVQLVESGGALVQPGGSLRLSCAASGFTFANYAMSWVRQAPGKGLEWVSSMTGSSIDSYYADSVKGRFTISRDNSRNTLYLQMNSLRAEDTAVYYCAKGELLWFGDLLHNWFDPWGRGTLVTVSS
VL: DIVMTQSPATLSVSPGERATLSCRASQSVSTNLAWYQQKPGQAPRLLIHGASTRATGLPARFSGSGSGTEFTLTISSLQSEDFAVYFCQQYDSWPGTFGPGTKVDIKR
The Kd is the constant that tells how readily two partners part at equilibrium. Low readings indicate tighter binding, high ones weaker binding. In the case of B1, the Kd with SARS-CoV-2 WT S-ECD蛋白 was 1.75 nM. Moreover, the “假病毒中和 EC50 (luciferase, HEK293T)” value with Alpha株刺突蛋白(S蛋白)，在假病毒表面 turned out to be 0.124 µg/mL; in assay [1] it was 0.162 µg/mL; with Gamma株刺突蛋白(S蛋白)，在假病毒表面 it was 0.136 µg/mL; in assay [2], 0.411 µg/mL; with Omicron株刺突蛋白(S蛋白)，在假病毒表面, 0.093 µg/mL. The “真病毒中和 EC50 (Vero E6, crystal violet)” value was 721 µg/mL in assay [1] and 7.97 µg/mL in assay [2].
